Experimental data taken from publication PMC12610408, “An Unbiased Cell‐Culture Selection Yields DNA Aptamers as Novel Senescent Cell‐Specific Reagents”.

Target: fibronectin (native, purified from mouse plasma) (mouse, UniProt P11276 33-2477)
Experiment: BLI; BLI: streptavidin biosensors, biotinylated aptamer (500 nM) immobilized, fibronectin analyte, 1x Octet Kinetics Buffer, 30 C, 1:1 fit; pull-down: streptavidin Dynabeads M-270, beads washed in PBS + 5 mM MgCl2
Settings: protein: native; chain copies: 2; label: 5' 6-FAM; 3' BioTEG

fibronectin (native, purified from mouse plasma), sequence (P11276 33-2477): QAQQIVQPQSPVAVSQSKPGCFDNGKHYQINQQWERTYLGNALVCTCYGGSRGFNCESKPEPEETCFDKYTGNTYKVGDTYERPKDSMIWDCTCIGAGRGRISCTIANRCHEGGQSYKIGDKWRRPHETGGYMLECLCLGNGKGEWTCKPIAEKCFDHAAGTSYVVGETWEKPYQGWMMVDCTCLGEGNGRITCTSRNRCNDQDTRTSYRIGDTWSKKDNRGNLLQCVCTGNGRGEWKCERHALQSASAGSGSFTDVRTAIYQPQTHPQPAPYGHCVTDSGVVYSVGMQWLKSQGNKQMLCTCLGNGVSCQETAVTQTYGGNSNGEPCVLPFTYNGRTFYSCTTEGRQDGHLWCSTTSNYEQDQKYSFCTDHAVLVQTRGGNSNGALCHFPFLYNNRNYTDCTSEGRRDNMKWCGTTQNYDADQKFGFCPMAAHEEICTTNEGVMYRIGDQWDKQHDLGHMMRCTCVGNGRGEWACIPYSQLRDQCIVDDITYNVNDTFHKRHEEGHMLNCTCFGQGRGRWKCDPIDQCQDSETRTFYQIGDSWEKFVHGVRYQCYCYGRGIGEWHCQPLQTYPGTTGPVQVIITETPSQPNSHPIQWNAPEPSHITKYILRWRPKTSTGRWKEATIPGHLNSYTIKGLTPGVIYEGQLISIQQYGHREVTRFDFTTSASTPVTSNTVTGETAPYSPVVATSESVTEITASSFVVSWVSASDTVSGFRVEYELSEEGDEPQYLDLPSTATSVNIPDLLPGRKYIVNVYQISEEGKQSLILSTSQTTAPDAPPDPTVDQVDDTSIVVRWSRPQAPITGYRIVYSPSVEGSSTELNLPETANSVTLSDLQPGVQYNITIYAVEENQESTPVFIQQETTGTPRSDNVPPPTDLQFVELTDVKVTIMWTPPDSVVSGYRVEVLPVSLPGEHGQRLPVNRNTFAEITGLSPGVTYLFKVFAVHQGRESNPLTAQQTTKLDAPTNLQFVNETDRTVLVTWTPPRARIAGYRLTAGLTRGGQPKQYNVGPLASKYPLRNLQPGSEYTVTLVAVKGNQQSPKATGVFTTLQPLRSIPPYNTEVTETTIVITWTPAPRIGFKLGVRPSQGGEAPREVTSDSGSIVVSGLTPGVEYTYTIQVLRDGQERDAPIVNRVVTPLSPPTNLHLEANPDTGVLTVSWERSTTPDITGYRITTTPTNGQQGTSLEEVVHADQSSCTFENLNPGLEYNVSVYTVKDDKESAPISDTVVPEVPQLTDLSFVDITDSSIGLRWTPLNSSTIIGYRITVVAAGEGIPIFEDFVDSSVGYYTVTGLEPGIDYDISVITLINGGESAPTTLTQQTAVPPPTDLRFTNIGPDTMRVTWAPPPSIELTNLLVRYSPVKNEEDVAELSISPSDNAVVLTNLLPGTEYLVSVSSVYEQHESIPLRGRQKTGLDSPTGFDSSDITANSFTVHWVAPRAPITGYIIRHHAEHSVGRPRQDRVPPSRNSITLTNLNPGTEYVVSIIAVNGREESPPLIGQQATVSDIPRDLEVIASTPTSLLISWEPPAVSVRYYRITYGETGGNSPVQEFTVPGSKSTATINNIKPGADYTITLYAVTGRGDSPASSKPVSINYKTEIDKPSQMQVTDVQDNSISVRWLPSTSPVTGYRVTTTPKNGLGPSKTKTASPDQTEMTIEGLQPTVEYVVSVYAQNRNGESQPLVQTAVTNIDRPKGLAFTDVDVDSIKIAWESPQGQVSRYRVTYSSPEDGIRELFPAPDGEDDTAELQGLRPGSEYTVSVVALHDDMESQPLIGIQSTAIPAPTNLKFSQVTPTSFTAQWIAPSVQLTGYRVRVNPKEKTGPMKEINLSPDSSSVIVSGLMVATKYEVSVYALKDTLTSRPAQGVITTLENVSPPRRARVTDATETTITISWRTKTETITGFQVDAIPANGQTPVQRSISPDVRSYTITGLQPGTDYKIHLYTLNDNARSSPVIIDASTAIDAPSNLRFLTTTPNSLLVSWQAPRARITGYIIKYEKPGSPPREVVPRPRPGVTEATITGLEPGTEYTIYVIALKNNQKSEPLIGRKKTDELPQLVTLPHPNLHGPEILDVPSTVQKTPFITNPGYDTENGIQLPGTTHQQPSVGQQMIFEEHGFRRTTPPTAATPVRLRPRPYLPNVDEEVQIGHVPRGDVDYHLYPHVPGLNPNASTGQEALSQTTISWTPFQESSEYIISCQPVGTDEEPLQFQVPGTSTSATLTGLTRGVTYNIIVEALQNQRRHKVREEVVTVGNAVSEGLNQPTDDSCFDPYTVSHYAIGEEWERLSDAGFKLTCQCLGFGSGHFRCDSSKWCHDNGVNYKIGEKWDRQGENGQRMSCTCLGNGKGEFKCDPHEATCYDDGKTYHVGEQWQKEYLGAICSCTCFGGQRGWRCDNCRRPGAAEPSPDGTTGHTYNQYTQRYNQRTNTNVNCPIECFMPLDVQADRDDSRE

Row | Binder | Kd [nM] | binding result
1 | aptamer 6762 (ssDNA) DNA: TGCGTATTGACACATGCGTGGCTTAATGCAATCCATCTGTTGCATTTTTCTAAACGTCGCCAGGCATAGGTATGGGCTTT | 0.579 | 
2 | aptamer 6756 (ssDNA) DNA: TGCGTATTGACACATGCGTGAAACGGACTTTTATTAGACAAATAATGCATGTCTCGAATTCAGGCATAGGTATGGGCTTT | 0.921 | 
3 | negative control oligonucleotide 6766 (ssDNA) DNA: TGCGTATTGACACATGCGTGCTTGTTATATAACGTGTCATAGCGTCCAAAAAGAAGTACACAGGCATAGGTATGGGCTTT |  | no binding
